PMC10378331, “Structural and Kinetic Characterization of the SpeG Spermidine/Spermine N-acetyltransferase from Methicillin-Resistant Staphylococcus aureus USA300” (Cells, 2023)

Columns and labels:
[1] = substrate: CC(=O)SCCNC(=O)CCNC(=O)[C@H](O)C(C)(C)COP(=O)(O)OP(=O)(O)OC[C@H]1O[C@@H](n2cnc3c(N)ncnc32)[C@H](O)[C@@H]1OP(=O)(O)O; experiment: DTNB colorimetric CoA assay, discontinuous; assay type: biochemical, Staphylococcus aureus; settings: Assay 2, enzyme pre-incubated with spermine, co-substrate 1.5 mM spermine (acceptor and allosteric ligand), 70 mM Bicine pH 8.0, 20 mM NaCl, 0.005% Triton X-100, 22 °C, 22.0 °C
Text: (§1) DTNB colorimetric CoA assay, discontinuous on SaSpeG

[2] = substrate: NCCCCNCCCN; experiment: DTNB colorimetric CoA assay, discontinuous; assay type: biochemical, Staphylococcus aureus; settings: Assay 1 (standard), no pre-incubation with polyamine, 0.5 mM AcCoA, 70 mM Bicine pH 8.0, 20 mM NaCl, 37 °C, Hill fit
Text: as §1

[3] = biological target: the molecule itself; experiment: crystal structure; ligand-free SaSpeG, 0.1 M NaCl, 0.1 M HEPES pH 8.0, 1.6 M ammonium sulfate; one protomer in the asymmetric unit; oligomer from symmetry-related proteins and PISA analysis

B1: SaSpeG (Staphylococcus aureus subsp. aureus USA300) (protein)
chain: MKLRALEYSDLLFVHELNNEYSIMSYWFEEPYESLTELQHLFDKHLLDESERRFIVEDENQVVGIVELVEINYIHRNCEIQIIIKPEFSGKGYAKFAFEKAIIYAFNILNMHKIYLYVDADNKKAIHIYESQGFKTEGLLKEQFYTKGKYKDAYFMSLLKSEYIL
notes: E. coli BL21(DE3); dodecamer by PISA
K0.5 [1]: 0.29 ± 0.01 mM
kcat [1]: 390 s⁻¹
kcat/Km [1]: 1.3e+06 M⁻¹ s⁻¹
K0.5 [2]: 4.0 ± 0.1 mM
kcat [2]: 3 s⁻¹
kcat/Km [2]: 750 M⁻¹ s⁻¹

B2: SpeG spermidine/spermine N-acetyltransferase from Staphylococcus aureus USA300 (enzyme)
chain: B1 chain
notes: SpeG spermidine/spermine N-acetyltransferase, Staphylococcus aureus USA300, UniProt A0A0H2XGJ0; gene synthesized and cloned into pMCSG21 at the SspI site; monomer ~19.8 kDa; after TEV cleavage the residues SN would remain at the N-terminus; The number of copies differs by experiment: dodecamer from crystal symmetry and PISA, trimer/tetramer by SEC; also called SaSpeG; source: E. coli BL21 (DE3) …
stoichiometry N [3]: 12
